Results as given in PMC12080732 (mAbs, 2025).
Numbering of substitutions follows the chain as printed.

B1: TNFI-Nb2 (VHH)
VHH: QVQLVESGGGLVQPGGSLRLSCAASGFAFNDHWMYWVRQAPGKELEWVSEINTNGLITKYADFVKGRFTVSRDNAKNTLYLQMNSLEPEDTAVYSCSRNQIGTLRGQGTQVTVSS
B2: TNFI-Nb1 (VHH)
VHH: B1 VHH with Q1E, N84D, E87R
B3: TNFI-Nb3 (VHH)
VHH: B1 VHH with K76E

Molecular target: active trimeric human TNFα (human, UniProt P01375 77-233)
Test: SPR

Chain of active trimeric human TNFα (P01375 77-233): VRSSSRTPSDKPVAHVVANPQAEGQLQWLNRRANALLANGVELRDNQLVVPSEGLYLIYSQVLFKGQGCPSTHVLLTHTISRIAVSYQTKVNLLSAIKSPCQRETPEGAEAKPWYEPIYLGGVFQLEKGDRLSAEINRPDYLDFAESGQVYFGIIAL

Row | Binder | Kd [nM] | koff [s⁻¹]
1 | B1 | 0.077 | 2.87e-05
2 | B2 | 0.219 | 
3 | B3 | 0.392 | 
